Data on 2 substances can be found in publication PMC10011331, “Vitamin C transporter SVCT1 serves a physiological role as a urate importer: functional analyses and in vivo investigations” (Pflugers Archiv, 2023).

Data set [1] concerns T1, O=c1[nH]c(=O)c2[nH]c(=O)[nH]c2[nH]1.
T1 construct: full-length human SVCT1 WT, EGFP fusion (pEGFP-N1)
Kind of data set: cells, lysate or membranes. In kind it is cell-based, Homo sapiens. The settings on record: Na+ urate and vitamin C could compete for SVCT1-mediated transport.

The test system of data set [2] is T2, O=c1[nH]c(=O)c2[nH]c(=O)[nH]c2[nH]1.
T2 construct: mouse Svct1 WT, EGFP fusion
Kind of data set: cells, lysate or membranes. In kind it is cell-based, Mus musculus. The settings on record: Na+.

Consider SVCT1 (Homo sapiens), for which the Michaelis-Menten constant (Km) (as a rule, the concentration of substrate that gives half-maximal velocity) in data set [1] came out at 1511 µM. With Svct1 (Mus musculus), the Km in data set [2] came to 646.9 µM.
